# From paper PMC4585926, “A RANKL mutant used as an inter-species vaccine for efficient immunotherapy of osteoporosis” (Scientific Reports, 2015)
# B1: human RANKL ectodomain (residues 158-317), wild type [human] / mouse RANK extracellular domain [mouse] (parent complex)
# chain 1: SKLEAQPFAHLTINATDIPSGSHKVSLSSWYHDRGWAKISNMTFSNGKLIVNQDGFYYLYANICFRHHETSGDLATEYLQLMVYVTKTSIKIPSSHTLMKGGSTKYWSGNSEFHFYSINVGGFFKLRSGEEISIEVSNPSLLDPDQDATYFGAFKVRDID
# chain 2: VTPPCTQERHYEHLGRCCSRCEPGKYLSSKCTPTSDSVCLPCGPDEYLDTWNEEDKCLLHKVCDAGKALVAVDPGNHTAPRRCACTAGYHWNSDCECCRRNTECAPGFGAQHPLQLNKDTVCTPCLLGFFSDVFSSTDKCKPWTNCTLLGKLEAHQGTTESDVVCSSSMTLRRPPKEAQAYLPS
# Variants of: B1
# Test: SPR (Biacore, chelating NTA sensor chip); hRANKL or mutant injected at 0, 0.47, 0.94, 1.88, 3.75, 7.5, 15 and 30 nM; parent: 0.156 nM
row,Variant,Kd
1,"chain 1 SKLEAQPFAHLTINATDIPSGSHKVSLSSWYHDRGWAKISNMTFSNGKLIVNQDGFYYLYANICFAHHETSGDLATEYLQLMVYVTKTSIKIPSSHTLMKGGSTKYWSGNSEFHFYSINVGGFFKLRSGEEISIEVSNPSLLAPDQDATYFGAFKVRDID [chain 1 R66A, chain 1 D143A]",39.4 nM
2,chain 1 SKLEAQPFAHLTINATDIPSGSHKVSLSSWYHDRGWAKISNMTFSNGKLIVNQDGFYYLYANICFAHHETSGDLATEYLQLMVYVTKTSIKIPSSHTLMKGGSTKYWSGNSEFHFYSINVGGFFKLRSGEEISIEVSNPSLLDPDQDATYFGAFKVRDID [chain 1 R66A],10.7 nM
3,chain 1 SKLEAQPFAHLTINATDIPSGSHKVSLSSWYHDRGWAKISNMTFSNGKLIVNQDGFYYLYANICFRHHETSGDLATEYLQLMVYVTKTSIKIPSSHTLMKGGSTKYWSGNSEFHFYSINVGGFFKLRSGEEISIEVSNPSLLAPDQDATYFGAFKVRDID [chain 1 D143A],2.15 nM
